Test results reported in patent publication US20210115092A1 (YEDA RESEARCH AND DEVELOPMENT, published 2021).

B1: Double-strand break repair protein MRE11A (enzyme)
chain: STADALDDENTFKILVATDIHLGFMEKDAVRGNDTFVTLDEILRLAQENEVDFILLGGDLFHENKPSRKTLHTCLELLRKYCMGDRPVQFEILSDQSVNFGFSKFPWVNYQDGNLNISIPVFSIHGNHDDPTGADALCALDILSCAGFVNHFGRSMSVEKIDISPVLLQKGSTKIALYGLGSIPDERLYRMFVNKKVTMLRPKEDENSWFNLFVIHQNRSKHGSTNFIPEQFLDDFIDLVIWGHEHECKIAPTKNEQQLFYISQPGSSVVTSLSPGEAVKKHVGLLRIKGRKMNMHKIPLHTVRQFFMEDIVLANHPDIFNPDNPKVTQAIQSFCLEKIEEMLENAERERLGNSHQPEKPLVRLRVDYSGGFEPFSVLRFSQKFVDRVANPKDIIHFFRHREQKEKTGEEINFGKLITKPSEGTTLRVEDLVKQYFQTAEKNVQLSLLTERGMGEAVQEFVDKEEKDAIEELVKYQLEKTQRFLKERHIDALEDKIDEEVRRFRETRQKNTNEEDDEVREAMTRARALRSQSEESASAFSADDLMSIDLAEQMANDSDDSISAATNKGRGRGRGRRGGRGQNSASRGGSQRGRADTGLETSTRSRNSKTAVSASRNMSIIDAFKSTRQQPSRNVTTKNYSEVIEVDESDVEEDIFPTTSKTDQRWSSTSSSKIMSQSQVSKGVDFESSEDDDDDPFMNTSSLRRNRR
B2: DNA repair protein RAD50 (other)
chain: MSRIEKMSILGVRSFGIEDKDKQIITFFSPLTILVGPNGAGKTTIIECLKYICTGDFPPGTKGNTFVHDPKVAQETDVRAQIRLQFRDVNGELIAVQRSMVCTQKSKKTEFKTLEGVITRTKHGEKVSLSSKCAEIDREMISSLGVSKAVLNNVIFCHQEDSNWPLSEGKALKQKFDEIFSATRYIKALETLRQVRQTQGQKVKEYQMELKYLKQYKEKACEIRDQITSKEAQLTSSKEIVKSYENELDPLKNRLKEIEHNLSKIMKLDNEIKALDSRKKQMEKDNSELEEKMEKVFQGTDEQLNDLYHNHQRTVREKERKLVDCHRELEKLNKESRLLNQEKSELLVEQGRLQLQADRHQEHIRARDSLIQSLATQLELDGFERGPFSERQIKNFHKLVRERQEGEAKTANQLMNDFAEKETLKQKQIDEIRDKKTGLGRIIELKSEILSKKQNELKNVKYELQQLEGSSDRILELDQELIKAERELSKAEKNSNVETLKMEVISLQNEKADLDRTLRKLDQEMEQLNHHTTTRTQMEMLTKDKADKDEQIRKIKSRHSDELTSLLGYFPNKKQLEDWLHSKSKEINQTRDRLAKLNKELASSEQNKNHINNELKRKEEQLSSYEDKLFDVCGSQDFESDLDRLKEEIEKSSKQRAMLAGATAVYSQFITQLTDENQSCCPVCQRVFQTEAELQEVISDLQSKLRLAPDKLKSTESELKKKEKRRDEMLGLVPMRQSIIDLKEKEIPELRNKLQNVNRDIQRLKNDIEEQETLLGTIMPEEESAKVCLTDVTIMERFQMELKDVERKIAQQAAKLQGIDLDRTVQQVNQEKQEKQHKLDTVSSKIELNRKLIQDQQEQIQHLKSTTNELKSEKLQISTNLQRRQQLEEQTVELSTEVQSLYREIKDAKEQVSPLETTLEKFQQEKEELINKKNTSNKIAQDKLNDIKEKVKNIHGYMKDIENYIQDGKDDYKKQKETELNKVIAQLSECEKHKEKINEDMRLMRQDIDTQKIQERWLQDNLTLRKRNEELKEVEEERKQHLKEMGQMQVLQMKSEHQKLEENIDNIKRNHNLALGRQKGYEEEIIHFKKELREPQFRDAEEKYREMMIVMRTTELVNKDLDIYYKTLDQAIMKFHSMKMEEINKIIRDLWRSTYRGQDIEYIEIRSDADENVSASDKRRNYNYRVVMLKGDTALDMRGRCSAGQKVLASLIIRLALAETFCLNCGIIALDEPTTNLDRENIESLAHALVEIIKSRSQQRNFQLLVITHDEDFVELLGRSEYVEKFYRIKKNIDQCSEIVKCSVSSLGFNVH
B3: Nibrin (other)
chain: MWKLLPAAGPAGGEPYRLLTGVEYVVGRKNCAILIENDQSISRNHAVLTANFSVTNLSQTDEIPVLTLKDNSKYGTFVNEEKMQNGFSRTLKSGDGITFGVFGSKFRIEYEPLVACSSCLDVSGKTALNQAILQLGGFTVNNWTEECTHLVMVSVKVTIKTICALICGRPIVKPEYFTEFLKAVESKKQPPQIESFYPPLDEPSIGSKNVDLSGRQERKQIFKGKTFIFLNAKQHKKLSSAVVFGGGEARLITEENEEEHNFFLAPGTCVVDTGITNSQTLIPDCQKKWIQSIMDMLQRQGLRPIPEAEIGLAVIFMTTKNYCDPQGHPSTGLKTTTPGPSLSQGVSVDEKLMPSAPVNTTTYVADTESEQADTWDLSERPKEIKVSKMEQKFRMLSQDAPTVKESCKTSSNNNSMVSNTLAKMRIPNYQLSPTKLPSINKSKDRASQQQQTNSIRNYFQPSTKKRERDEENQEMSSCKSARIETSCSLLEQTQPATPSLWKNKEQHLSENEPVDTNSDNNLFTDTDLKSIVKNSASKSHAAEKLRSNKKREMDDVAIEDEVLEQLFKDTKPELEIDVKVQKQEEDVNVRKRPRMDIETNDTFSDEAVPESSKISQENEIGKKRELKEDSLWSAKEISNNDKLQDDSEMLPKKLLLTEFRSLVIKNSTSRNPSGINDDYGQLKNFKKFKKVTYPGAGKLPHIIGGSDLIAHHARKNTELEEWLRQEMEVQNQHAKEESLADDLFRYNPYLKRRR
notes: also called Nbs1; NBN

What follows are binders tested against T1, Flag-Cas9 (wild-type, unmodified SpCas9) (Streptococcus pyogenes, UniProt Q99ZW2 2-1368) (assay: co-immunoprecipitation, anti-Flag IP from transfected HEK293 extracts, immunoblot).
T1 construct: expressed in HEK293; also called original Cas9; wt Cas9; not shown: Flag tag and N-terminal NLS of the vector; C-terminal NLS and what remains of the T2A peptide
T1 sequence (Q99ZW2 2-1368): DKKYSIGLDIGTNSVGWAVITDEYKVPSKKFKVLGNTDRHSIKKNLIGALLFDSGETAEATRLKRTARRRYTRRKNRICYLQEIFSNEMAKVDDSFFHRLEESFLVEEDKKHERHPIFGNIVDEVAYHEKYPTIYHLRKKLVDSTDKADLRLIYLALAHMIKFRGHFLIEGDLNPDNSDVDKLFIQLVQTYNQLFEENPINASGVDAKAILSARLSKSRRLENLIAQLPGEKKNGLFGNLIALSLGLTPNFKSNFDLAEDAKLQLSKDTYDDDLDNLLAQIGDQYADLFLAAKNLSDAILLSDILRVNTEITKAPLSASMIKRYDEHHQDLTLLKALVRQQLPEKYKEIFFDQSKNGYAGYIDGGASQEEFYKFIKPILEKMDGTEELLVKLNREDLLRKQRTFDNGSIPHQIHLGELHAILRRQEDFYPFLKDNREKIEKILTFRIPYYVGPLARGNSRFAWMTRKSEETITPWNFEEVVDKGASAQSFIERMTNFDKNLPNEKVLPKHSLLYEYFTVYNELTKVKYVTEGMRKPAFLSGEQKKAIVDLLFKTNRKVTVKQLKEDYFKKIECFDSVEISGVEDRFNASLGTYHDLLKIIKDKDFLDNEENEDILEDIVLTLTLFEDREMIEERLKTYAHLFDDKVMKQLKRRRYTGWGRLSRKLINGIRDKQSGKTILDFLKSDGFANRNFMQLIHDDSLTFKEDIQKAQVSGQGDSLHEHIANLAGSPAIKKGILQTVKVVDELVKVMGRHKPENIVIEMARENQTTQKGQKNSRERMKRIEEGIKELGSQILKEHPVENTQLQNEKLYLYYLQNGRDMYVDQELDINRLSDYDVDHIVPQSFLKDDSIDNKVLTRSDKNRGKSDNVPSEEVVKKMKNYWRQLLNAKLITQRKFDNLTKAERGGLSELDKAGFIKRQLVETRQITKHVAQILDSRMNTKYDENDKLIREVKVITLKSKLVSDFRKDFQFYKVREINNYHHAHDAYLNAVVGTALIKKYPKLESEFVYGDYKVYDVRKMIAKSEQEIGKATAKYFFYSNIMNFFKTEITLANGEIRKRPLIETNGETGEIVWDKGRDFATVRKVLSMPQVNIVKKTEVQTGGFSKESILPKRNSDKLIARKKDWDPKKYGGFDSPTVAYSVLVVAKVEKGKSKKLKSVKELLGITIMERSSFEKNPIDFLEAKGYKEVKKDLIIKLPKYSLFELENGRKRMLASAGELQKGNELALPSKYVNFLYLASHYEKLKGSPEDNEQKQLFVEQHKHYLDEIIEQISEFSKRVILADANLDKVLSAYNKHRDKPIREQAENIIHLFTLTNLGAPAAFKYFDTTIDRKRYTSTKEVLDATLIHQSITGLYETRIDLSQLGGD
B1: no binding. B2: no binding. B3: no binding.
